Data taken from publication PMC6447637.

How the values were obtained:
[1] = target: NaV1.4 CTerm Long (residues 1599–1764), freed of CaM for ITC (human) (UniProt P35499); assay: ITC; Ca2+-saturating: CTerm (2–25 µM) in the sample cell, CaM, CaM12 or CaM34 (30–1000 µM) as titrant; 20 mM MOPS, 150 mM NaCl, 1 mM MgCl2, 50 µM EGTA with 1 mM CaCl2; VP-ITC, single binding site fit, one replicate
[2] = target: NaV1.4 CTerm Short (residues 1599–1754), freed of CaM for ITC (human) (UniProt P35499); assay: as above
[3] = target: NaV1.5 CTerm Long (not stated (human or rat cDNA cloned)); assay: as above
[4] = target: NaV1.5 CTerm Long (not stated (human or rat cDNA cloned)); assay: ITC; Ca2+-free: CTerm (2–25 µM) in the sample cell, CaM (30–1000 µM) as titrant; 20 mM MOPS, 150 mM NaCl, 1 mM MgCl2, 50 µM EGTA; VP-ITC, single binding site fit, one replicate
[5] = target: NaV1.5 CTerm Long (not stated (human or rat cDNA cloned)); assay: ITC; Ca2+-saturating: CTerm (2–25 µM) in the sample cell, CaM, CaM12 or CaM34 (30–1000 µM) as titrant; 20 mM MOPS, 150 mM NaCl, 1 mM MgCl2, 50 µM EGTA with 1 mM CaCl2; VP-ITC, single binding site fit, one replicate; remark: listed apart in the source

| Kd [1] | Kd [2] | Substance | Kd [3] | Kd [4] | Kd [5] |
| --- | --- | --- | --- | --- | --- |
| 154 nM | 156 nM | CaM12 (D20A, D56A; N lobe Ca^2+ binding disabled) (natural protein) | 3600 nM | – | – |
| 121 nM | 282 nM | CaM34 (D93A, D129A; C lobe Ca^2+ binding disabled) (natural protein) | 90 nM | – | – |
| – | – | calmodulin (full-length mammalian calmodulin, R. norvegicus CALM2) (from UniProt P0DP30 1-149) (natural protein) | 89 nM | 48 nM | 70 nM |
